{
  "source": "patent US20210283212A1",
  "about": "(RA PHARMACEUTICALS, published 2021)",
  "experiment_in_all_cases": "cell-based or functional assay",
  "key": {"[1]": {"biological_target": "T1, human C5 protein (human, UniProt P01031 19-673; P01031 678-1676)"}, "[2]": {"biological_target": "T1, human C5 protein", "remark": "listed apart in the source"}, "[3]": {"biological_target": "T1, human C5 protein", "remark": "listed apart in the source"}},
  "note": "Starred links: 1 amine or outer side, 2 acyl side, 3 side chain; linkers in the order of their positions; H or OH if unused. Positions of bridges follow the written chain, without caps; N, C: chain ends. Non-standard residues stand in square brackets, D forms with d. Primed or numbered codes have the meaning given here. No end group written: not given here. *: point of attachment. mXylyl(3) = bridging moiety between the two residues given in brackets; m‑xylyl = bridging moiety between the two residues given in brackets; Lys(ivDde) = CC(C)CC(NCCCC[C@H](N)C(=O)O)=C1C(=O)CC(C)(C)CC1=O; Phe(3-CH2NH2) = O=C([C@H](Cc1cccc(CN[*:3])c1)N[*:1])[*:2]; Ala(1H-tetrazol-5-yl) = N[C@@H](Cc1nnn[nH]1)C(=O)O; Trp(5-F) = N[C@@H](Cc1c[nH]c2ccc(F)cc12)C(=O)O; Trp(7-aza) = N[C@@H](Cc1c[nH]c2ncccc12)C(=O)O; Trp(1-Me) = Cn1cc(C[C@H](N)C(=O)O)c2ccccc21; 2Nal = N[C@@H](Cc1ccc2ccccc2c1)C(=O)O; Palmitoyl = CCCCCCCCCCCCCCCC(=O)*; hPhe = N[C@@H](CCc1ccccc1)C(=O)O; NMeD = CN[C@@H](CC(=O)O)C(=O)O; Chg = N[C@H](C(=O)O)C1CCCCC1; Phg = N[C@H](C(=O)O)c1ccccc1; Tle = CC(C)(C)[C@H](N)C(=O)O; NMeS = CN[C@@H](CO)C(=O)O; Ac5c = NC1(C(=O)O)CCCC1; Nva = CCC[C@H](N)C(=O)O; Thp = NC1(C(=O)O)CCOCC1; Aib = CC(C)(N)C(=O)O; Mpa = O=C(O)CCS",
  "data": [
    {"binder": "Ac-[Nva]C[Phg]T[Trp(7-aza)]E[hPhe][NMeS]AC[Nva]-NH2 (linker 2-10 via mXylyl(3))", "note": "[R3095]", "values": [
      {"measurement": "Avg. IC50, human hemolysis assay", "setting": "[1]", "value": "> 50000", "unit": "nM"}
    ]},
    {"binder": "Ac-KVERFD[NMeD][Tle]YWEYP[Chg][Lys(ivDde)] (lactam 1-6)", "note": "[R3197]", "values": [
      {"measurement": "Avg. IC50, hemolysis assay with C5 depleted sera", "setting": "[2]", "value": 4, "unit": "nM"}
    ]},
    {"binder": "Ac-KVERFD[NMeD][Tle]YWEYP[Chg]K(Palmitoyl) (lactam 1-6)", "note": "[R3195]", "values": [
      {"measurement": "Avg. IC50, hemolysis assay with C5 depleted sera", "setting": "[2]", "value": 62.5, "unit": "nM"}
    ]},
    {"binder": "Ac-[Nva]C[Phg]T[Trp(1-Me)]EY[NMeS]AC[Nva]-NH2 (linker 2-10 via mXylyl(3))", "note": "[R3109]", "values": [
      {"measurement": "Avg. IC50, human hemolysis assay", "setting": "[1]", "value": "> 100000", "unit": "nM"},
      {"measurement": "Avg. IC50 (nM), human hemolysis assay", "setting": "[3]", "value": "> 100000", "unit": "nM"}
    ]},
    {"binder": "Ac-[Nva]C[Phg]T[Trp(7-aza)]EF[NMeS]AC[Nva]-NH2 (linker 2-10 via mXylyl(3))", "note": "[R3100]", "values": [
      {"measurement": "Avg. IC50, human hemolysis assay", "setting": "[1]", "value": 626, "unit": "nM"}
    ]},
    {"binder": "Ac-[Nva]C[Phg][Aib][Trp(7-aza)]EY[NMeS]HC[Nva]-NH2 (linker 2-10 via mXylyl(3))", "note": "[R3096]", "values": [
      {"measurement": "Avg. IC50, human hemolysis assay", "setting": "[1]", "value": "> 50000", "unit": "nM"}
    ]},
    {"binder": "Ac-KVERFD[NMeD][Tle]YWEYP[Chg]K (lactam 1-6)", "note": "[R3196]", "values": [
      {"measurement": "Avg. IC50, hemolysis assay with C5 depleted sera", "setting": "[2]", "value": 3, "unit": "nM"}
    ]},
    {"binder": "Ac-[Nva]C[Phg]T[Trp(5-F)]EY[NMeS]AC[Nva]-NH2 (linker 2-10 via mXylyl(3))", "note": "[R3088]", "values": [
      {"measurement": "Avg. IC50, human hemolysis assay", "setting": "[1]", "value": "> 100000", "unit": "nM"},
      {"measurement": "Avg. IC50 (nM), human hemolysis assay", "setting": "[3]", "value": "> 100000", "unit": "nM"}
    ]},
    {"binder": "Ac-[Nva]C[Phg]T[Trp(7-aza)]DY[NMeS]AC[Nva]-NH2 (linker 2-10 via mXylyl(3))", "note": "[R3097]", "values": [
      {"measurement": "Avg. IC50, human hemolysis assay", "setting": "[1]", "value": "> 100000", "unit": "nM"}
    ]},
    {"binder": "Ac-KVERFD[NMeD][Tle]Y[Trp(7-aza)]EYP[Chg]K-NH2 (lactam 1-6; SMILES CC(=O)N[C@H]1CCCCNC(=O)C[C@@H](C(=O)N(C)[C@@H](CC(=O)O)C(=O)N[C@H](C(=O)N[C@@H](Cc2ccc(O)cc2)C(=O)N[C@@H](Cc2c[nH]c3ncccc23)C(=O)N[C@@H](CCC(=O)O)C(=O)N[C@@H](Cc2ccc(O)cc2)C(=O)N2CCC[C@H]2C(=O)N[C@H](C(=O)N[C@@H](CCCCN)C(N)=O)C2CCCCC2)C(C)(C)C)NC(=O)[C@H](Cc2ccccc2)NC(=O)[C@H](CCCNC(=N)N)NC(=O)[C@H](CCC(=O)O)NC(=O)[C@H](C(C)C)NC1=O)", "note": "[R3192]", "values": [
      {"measurement": "Avg. IC50, hemolysis assay with C5 depleted sera", "setting": "[2]", "value": 1.5, "unit": "nM"}
    ]},
    {"binder": "Ac-CAERFCD[Tle]Y[Trp(7-aza)]EYP[Phg]K(Palmitoyl) (linker 1-6 via m‑xylyl)", "note": "[R3189]", "values": [
      {"measurement": "Avg. IC50, hemolysis assay with C5 depleted sera", "setting": "[2]", "value": 81.5, "unit": "nM"}
    ]},
    {"binder": "Ac-CVERFC[Ac5c][Tle]Y[Trp(7-aza)]EYP[Chg][Nva] (linker 1-6 via m‑xylyl)", "note": "[R3185]", "values": [
      {"measurement": "Avg. IC50, hemolysis assay with C5 depleted sera", "setting": "[2]", "value": 12.5, "unit": "nM"}
    ]},
    {"binder": "Ac-[Nva]C[Phg]T[Trp(7-aza)]QY[NMeS]AC[Nva]-NH2 (linker 2-10 via mXylyl(3))", "note": "[R3098]", "values": [
      {"measurement": "Avg. IC50, human hemolysis assay", "setting": "[1]", "value": "> 100000", "unit": "nM"}
    ]},
    {"binder": "Ac-CVERFCD[Tle]Y[Trp(7-aza)]E[2Nal]P[Chg][Nva] (linker 1-6 via m‑xylyl)", "note": "[R3180]", "values": [
      {"measurement": "Avg. IC50, hemolysis assay with C5 depleted sera", "setting": "[2]", "value": 29, "unit": "nM"}
    ]},
    {"binder": "[Mpa][dA]ERFC[NMeD][Tle]Y[Trp(7-aza)]EYP[Chg]K(Palmitoyl) (bridge 1-6; also: cyclo(1,6) between Cys1 and Cys6, ring kind not given here)", "note": "[R3199]", "values": [
      {"measurement": "Avg. IC50, hemolysis assay with C5 depleted sera", "setting": "[2]", "value": 112, "unit": "nM"}
    ]},
    {"binder": "Ac-CVERFCD[Tle]Y[Phe(3-CH2NH2)]EYP[Chg][Nva] (linker 1-6 via m‑xylyl)", "note": "[R3181]", "values": [
      {"measurement": "Avg. IC50, hemolysis assay with C5 depleted sera", "setting": "[2]", "value": 1500, "unit": "nM"}
    ]},
    {"binder": "[Mpa]VERFC[NMeD][Tle]Y[Trp(7-aza)]EYP[Chg]K(Palmitoyl) (bridge 1-6; also: cyclo(1,6) between Cys1 and Cys6, ring kind not given here)", "note": "[R3198]", "values": [
      {"measurement": "Avg. IC50, hemolysis assay with C5 depleted sera", "setting": "[2]", "value": 142, "unit": "nM"}
    ]},
    {"binder": "Ac-[Nva]C[Phg]T[Trp(7-aza)]NY[NMeS]AC[Nva]-NH2 (linker 2-10 via mXylyl(3))", "note": "[R3099]", "values": [
      {"measurement": "Avg. IC50, human hemolysis assay", "setting": "[1]", "value": "> 100000", "unit": "nM"}
    ]},
    {"binder": "Ac-CVERFCD[Tle]Y[Trp(7-aza)]E[(m-Cl-homo)Phe]P[Chg][Nva] (linker 1-6 via m‑xylyl)", "note": "[R3179]", "values": [
      {"measurement": "Avg. IC50, hemolysis assay with C5 depleted sera", "setting": "[2]", "value": 83, "unit": "nM"}
    ]},
    {"binder": "Ac-KVERFD[NMeD][Tle]Y[Trp(7-aza)]EYP[Chg]K(Palmitoyl)-NH2 (lactam 1-6; SMILES CCCCCCCCCCCCCCCC(=O)NCCCC[C@H](NC(=O)[C@@H](NC(=O)[C@@H]1CCCN1C(=O)[C@H](Cc1ccc(O)cc1)NC(=O)[C@H](CCC(=O)O)NC(=O)[C@H](Cc1c[nH]c2ncccc12)NC(=O)[C@H](Cc1ccc(O)cc1)NC(=O)[C@@H](NC(=O)[C@H](CC(=O)O)N(C)C(=O)[C@@H]1CC(=O)NCCCC[C@H](NC(C)=O)C(=O)N[C@@H](C(C)C)C(=O)N[C@@H](CCC(=O)O)C(=O)N[C@@H](CCCNC(=N)N)C(=O)N[C@@H](Cc2ccccc2)C(=O)N1)C(C)(C)C)C1CCCCC1)C(N)=O)", "note": "[R3194]", "values": [
      {"measurement": "Avg. IC50, hemolysis assay with C5 depleted sera", "setting": "[2]", "value": 15.5, "unit": "nM"}
    ]},
    {"binder": "Ac-CVERFC[Thp][Tle]Y[Trp(7-aza)]EYP[Chg][Nva] (linker 1-6 via mXylyl(3))", "note": "[R3186]", "values": [
      {"measurement": "Avg. IC50, hemolysis assay with C5 depleted sera", "setting": "[2]", "value": 18, "unit": "nM"}
    ]},
    {"binder": "Ac-[Nva]C[Phg]TWEY[NMeS]AC[Nva]-NH2 (linker 2-10 via mXylyl(3))", "note": "[R3091]", "values": [
      {"measurement": "Avg. IC50, human hemolysis assay", "setting": "[1]", "value": 483, "unit": "nM"},
      {"measurement": "Avg. IC50 (nM), human hemolysis assay", "setting": "[3]", "value": 483, "unit": "nM"}
    ]},
    {"binder": "Ac-[Nva]C[Phg]T[dW]EY[NMeS]HC[Nva]-NH2 (linker 2-10 via mXylyl(3))", "note": "[R3132]", "values": [
      {"measurement": "Avg. IC50, human hemolysis assay", "setting": "[1]", "value": "> 100000", "unit": "nM"},
      {"measurement": "Avg. IC50 (nM), human hemolysis assay", "setting": "[3]", "value": "> 100000", "unit": "nM"}
    ]},
    {"binder": "Ac-[Nva]C[Phg]TW[Ala(1H-tetrazol-5-yl)]Y[NMeS]HC[Nva]-NH2 (linker 2-10 via mXylyl(3))", "note": "[R3131]", "values": [
      {"measurement": "Avg. IC50, human hemolysis assay", "setting": "[1]", "value": "> 100000", "unit": "nM"},
      {"measurement": "Avg. IC50 (nM), human hemolysis assay", "setting": "[3]", "value": "> 100000", "unit": "nM"}
    ]},
    {"binder": "VERFCD[Tle]Y[Trp(7-aza)]EYP[Chg][Nva] (thioether 1-5)", "note": "[R3184]", "values": [
      {"measurement": "Avg. IC50, hemolysis assay with C5 depleted sera", "setting": "[2]", "value": 4, "unit": "nM"}
    ]},
    {"binder": "Ac-CVERFCD[Tle]Y[Trp(7-aza)]EWP[Chg][Nva] (linker 1-6 via m‑xylyl)", "note": "[R3177]", "values": [
      {"measurement": "Avg. IC50, hemolysis assay with C5 depleted sera", "setting": "[2]", "value": 12, "unit": "nM"}
    ]}
  ]
}
